Experimental data from the supplement of paper PMC9112550, “Optimization of the antimicrobial peptide Bac7 by deep mutational scanning” (BMC Biology, 2022).

Tested on: Escherichia coli TOP10
Experiment: shrunken log2 fold change of peptide-encoding DNA abundance (4.5 h post-induction vs induction); higher = less antimicrobial activity (less host growth inhibition)
Details: time post-induction: 4.5 h; library: site-saturation at positions 5, 18, 19, 20
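Note: peptides expressed intracellularly from a pBAD plasmid library in pooled LB shake-flask culture, induced with 0.3% L-arabinose, DNA abundance read by NGS, three biological replicates, DESeq2 with apeglm shrinkage.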

Sequence | shrunken log2 fold change
RRIRYRPPRLPRPRPRPPDQPRP | -0.145
RRIRERPPRLPRPRPRPYENPRP | 0.0288
RRIRLRPPRLPRPRPRPVIKPRP | -0.111
RRIRTRPPRLPRPRPRPHSKPRP | -0.2
RRIRCRPPRLPRPRPRPNMVPRP | 0.0392
RRIRYRPPRLPRPRPRPCVMPRP | 0.0476
RRIRWRPPRLPRPRPRPVCMPRP | 0.193
RRIRTRPPRLPRPRPRPCWVPRP | -0.42
RRIRFRPPRLPRPRPRPSWHPRP | -0.475
RRIRLRPPRLPRPRPRPCYEPRP | -0.284
RRIRIRPPRLPRPRPRPGARPRP | 0.251
RRIRPRPPRLPRPRPRPPDCPRP | -0.0878
RRIRRRPPRLPRPRPRPIFNPRP | -0.124
RRIRSRPPRLPRPRPRPDFHPRP | -0.751
RRIRERPPRLPRPRPRPTWSPRP | -0.268
RRIRTRPPRLPRPRPRPRMCPRP | 0.00183
RRIRKRPPRLPRPRPRPITIPRP | -0.165
RRIRSRPPRLPRPRPRPGWYPRP | -0.118
RRIRWRPPRLPRPRPRPDFIPRP | -0.395
RRIRHRPPRLPRPRPRPHSKPRP | -0.32
RRIRFRPPRLPRPRPRPMINPRP | -0.208
RRIRLRPPRLPRPRPRPGYRPRP | -0.16
RRIRFRPPRLPRPRPRPMYRPRP | -0.29
RRIRNRPPRLPRPRPRPDGCPRP | 0.136
RRIRERPPRLPRPRPRPTMDPRP | 0.0537

Sequence | shrunken log2 fold change
RRIRQRPPRLPRPRPRPCTEPRP | 0.0363
RRIRIRPPRLPRPRPRPELYPRP | -0.0779
RRIRPRPPRLPRPRPRPNHVPRP | -0.532
RRIRERPPRLPRPRPRPNVHPRP | -0.344
RRIRTRPPRLPRPRPRPIYFPRP | -0.468
RRIRIRPPRLPRPRPRPQIPPRP | -0.216
RRIRGRPPRLPRPRPRPTHLPRP | 0.359
RRIRARPPRLPRPRPRPEERPRP | 1.11
RRIRIRPPRLPRPRPRPYQEPRP | 0.0173
RRIRTRPPRLPRPRPRPNCTPRP | -0.485
RRIRKRPPRLPRPRPRPKLKPRP | 0.585
RRIRSRPPRLPRPRPRPRVQPRP | -0.25
RRIRCRPPRLPRPRPRPAKIPRP | -0.361
RRIRFRPPRLPRPRPRPCKYPRP | -0.373
RRIRTRPPRLPRPRPRPFIDPRP | -1.15
RRIRKRPPRLPRPRPRPRPNPRP | 0.42
RRIRSRPPRLPRPRPRPDRYPRP | -0.172
RRIRMRPPRLPRPRPRPMAVPRP | -0.00104
RRIRTRPPRLPRPRPRPDTQPRP | 0.0514
RRIRARPPRLPRPRPRPTVNPRP | -0.0152
RRIRKRPPRLPRPRPRPVCFPRP | 0.54
RRIRLRPPRLPRPRPRPIDGPRP | -0.0968
RRIRTRPPRLPRPRPRPVFVPRP | 0.0253
RRIRNRPPRLPRPRPRPILHPRP | -0.684
RRIRTRPPRLPRPRPRPAMCPRP | 0.131

Sequence | shrunken log2 fold change
RRIRARPPRLPRPRPRPFKDPRP | -0.0208
RRIRCRPPRLPRPRPRPIVQPRP | 0.0655
RRIRLRPPRLPRPRPRPYYIPRP | -0.982
RRIRDRPPRLPRPRPRPVKFPRP | 0.284
RRIRARPPRLPRPRPRPSRHPRP | -0.00582
RRIRNRPPRLPRPRPRPTLSPRP | 0.145
RRIRGRPPRLPRPRPRPQYHPRP | -0.141
RRIRWRPPRLPRPRPRPHTQPRP | -0.56
RRIRGRPPRLPRPRPRPRFSPRP | 0.0932
RRIRFRPPRLPRPRPRPAHQPRP | -0.15
RRIRDRPPRLPRPRPRPTFMPRP | -0.07
RRIRGRPPRLPRPRPRPDRVPRP | 0.311
RRIRTRPPRLPRPRPRPRGVPRP | 0.196
RRIRERPPRLPRPRPRPWRVPRP | -0.0327
RRIRWRPPRLPRPRPRPFKLPRP | -0.044
RRIRERPPRLPRPRPRPDKLPRP | -1.81
RRIRSRPPRLPRPRPRPADMPRP | 0.0296
RRIRARPPRLPRPRPRPKSYPRP | -0.145
RRIRERPPRLPRPRPRPDYYPRP | -0.603
RRIRSRPPRLPRPRPRPAITPRP | -0.0725
RRIRMRPPRLPRPRPRPMQLPRP | 0.33
RRIRPRPPRLPRPRPRPGCEPRP | 0.113
RRIRPRPPRLPRPRPRPRLRPRP | 0.458
RRIRNRPPRLPRPRPRPCVKPRP | -0.13
RRIRQRPPRLPRPRPRPHMGPRP | -0.512

Sequence | shrunken log2 fold change
RRIRARPPRLPRPRPRPSLKPRP | -0.0764
RRIRFRPPRLPRPRPRPNKCPRP | -0.273
RRIRFRPPRLPRPRPRPFRIPRP | -0.687
RRIRNRPPRLPRPRPRPFWHPRP | 0.189
RRIRGRPPRLPRPRPRPYKTPRP | -0.0831
RRIRPRPPRLPRPRPRPRAKPRP | 0.692
RRIRNRPPRLPRPRPRPTPFPRP | -0.07
RRIRCRPPRLPRPRPRPDNVPRP | -0.0772
RRIRERPPRLPRPRPRPGKFPRP | -0.0178
RRIRGRPPRLPRPRPRPKRGPRP | 0.919
RRIRARPPRLPRPRPRPNMDPRP | -0.00909
RRIRFRPPRLPRPRPRPGDFPRP | -0.209
RRIRTRPPRLPRPRPRPVGGPRP | 0.837
RRIRMRPPRLPRPRPRPSGPPRP | 0.205
RRIRYRPPRLPRPRPRPLNRPRP | -1.92
RRIRYRPPRLPRPRPRPRDKPRP | -0.667
RRIRFRPPRLPRPRPRPRTHPRP | 0.114
RRIRFRPPRLPRPRPRPIFGPRP | 0.449
RRIRDRPPRLPRPRPRPHSRPRP | -0.328
RRIRWRPPRLPRPRPRPDHAPRP | 0.391
RRIRQRPPRLPRPRPRPMKIPRP | -0.0609
RRIRWRPPRLPRPRPRPVHYPRP | -0.0467
RRIRGRPPRLPRPRPRPGPAPRP | 1.02
RRIRCRPPRLPRPRPRPRTAPRP | 0.304
RRIRLRPPRLPRPRPRPCKRPRP | -0.0962

Sequence | shrunken log2 fold change
RRIRERPPRLPRPRPRPHDTPRP | -0.332
RRIRYRPPRLPRPRPRPHDMPRP | -0.00277
RRIRERPPRLPRPRPRPHRYPRP | 0.0893
RRIRARPPRLPRPRPRPDQFPRP | 0.389
RRIRWRPPRLPRPRPRPPPAPRP | 1.2
RRIRGRPPRLPRPRPRPRYVPRP | -0.0805
RRIRKRPPRLPRPRPRPVWAPRP | 0.316
RRIRKRPPRLPRPRPRPTRKPRP | 3.78
RRIRTRPPRLPRPRPRPEYMPRP | -0.263
RRIRCRPPRLPRPRPRPCAHPRP | 0.0631
RRIRHRPPRLPRPRPRPATQPRP | -0.038
RRIRVRPPRLPRPRPRPRCEPRP | 0.133
RRIRKRPPRLPRPRPRPCGAPRP | 0.45
RRIRIRPPRLPRPRPRPNQKPRP | 0.0249
RRIRIRPPRLPRPRPRPDYKPRP | -0.231
RRIRSRPPRLPRPRPRPIRTPRP | -0.207
RRIRERPPRLPRPRPRPNCFPRP | -0.195
RRIRSRPPRLPRPRPRPHEWPRP | 0.147
RRIRMRPPRLPRPRPRPWTSPRP | 0.0303
RRIRHRPPRLPRPRPRPKVFPRP | -0.00193
RRIRRRPPRLPRPRPRPRSNPRP | 0.224
RRIRWRPPRLPRPRPRPYQMPRP | -0.0321
RRIRCRPPRLPRPRPRPMCVPRP | -0.185
RRIRIRPPRLPRPRPRPKRRPRP | 0.123
RRIRVRPPRLPRPRPRPWLSPRP | -0.0434
